# ± gives the half width of the 95% confidence interval.
# Assay: folding stability dG unfold from trypsin proteolysis; higher = more stable
# Outline: (§1)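 K50 was inferred by Bayesian fitting of sequencing counts obtained after protease digestion of designed mini-proteins. Unfolding free energy was derived by comparison with a sequence-predicted unfolded-state K50 and a shared folded-state K50, for each protease or both combined. The mini-proteins were under 80 residues, had no cysteine, were carried in a PA-tagged cDNA display construct, and were kept only if AlphaFold2 dimer inter-PAE exceeded 15.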
row,Sequence,folding stability dG unfold
1,PWVMIPIRVDDPNMTIREIANEVRKALPPGNKNLKISIMWGDGRRYEIDPGETLKDHFPPGDEFHIMVRLPS [r1_56_TrROS],1.65 ± 0.02 kcal/mol
2,SAGGSAGGSMKTTLLAEKELPDGTRVELTRVESPGSLTYEVVTVSPEGTEVRTLPPDELPYLLSAGGSAGGS [r12_315_JUSTAS],1.22 ± 0.082 kcal/mol
3,PKPLIEIERLPEGVLRARAINPVTGAPITITVPVEPGVDGYRLLAEVEAENVPPELAVKTAETVLALLEKKS [r1_403_TrMRF],-0.115 ± 0.24 kcal/mol
4,SAGGSAGGSAGRLLLEGLGADEVLRLEPEPDRVPIVVRHRDGGRDVVIEMDFEEAVRAILSAGGSAGGSAGG [r11_630_TrMRF],-1.22 ± 0.67 kcal/mol
5,SAGGSAGGSPNYRTVTVTLPNGEVYVIDVSQLIESDPNYVPGDPISDEELVALAKKRAEELELSSAGGSAGG [r6_65_JUSTAS],2.71 ± 0.051 kcal/mol
6,SAGGSAGGSAGGLPPGDKLKPVASWPIWAMFPVTYKGPDGELPFNIMIPIRIEIWKPDDSAGGSAGGSAGGS [r10_758_TrROS],2.23 ± 0.087 kcal/mol
7,SAGGKIIEAIKELLKEGKKLSKEEILKKLKEALRKKAEEEGKPIEEIEITSIHFDKETNEVHIEIKPSAGGS [r16_365_TrROS_Hall],2.48 ± 0.12 kcal/mol
8,SAGGSAKSLTLTVEITLPDGSTVRIEAEIEEKDGYLVIKVTIYNEDGEKVAEFTLVLKLPPPPPEPSAGGSA [r15_263_TrROS_Hall],2.84 ± 0.47 kcal/mol
9,SAGGSAGGSAGKKYLIKIEVEKNGKKYTITMSLEELKKLISSPNVKIVKIEIVEVSEEDLSAGGSAGGSAGG [r17_204_TrROS_Hall],4.33 ± 0.15 kcal/mol
10,SAGGSAGGSAGMELTLDEIRALLPAEEIEEVEVVEVDGKLVIRVKRKDGKEVRELVIEKDSAGGSAGGSAGG [r17_374_TrROS_Hall],1.63 ± 0.065 kcal/mol
11,SAGGSAGGSAEKKKVTIRIVVKPEDVEEILKAIEELLPPGAKATIKVFDKNGELIAEFEFEVSAGGSAGGSA [r18_188_TrROS_Hall],2.5 ± 0.17 kcal/mol
12,SAGEIEEILIENPETNEVYRITKVETTVELDEDGNLHTTTKVEIEKVEPPPPPEPEVEVEVKPGEKVELSAG [r5_212_TrROS_Hall],0.225 ± 0.068 kcal/mol
13,SAGMVITETEELPDRTITTVKYSDGKVVIETLEYDPNSNVVTKTVTTIDLSNPSVSKTTTTVEPDPAPSAGG [r19_102_JUSTAS],1.15 ± 0.099 kcal/mol
14,SAGVEIKTDPSKPVITITINYTSIEEAKEYIEKLVKEIGAKEVKIKEDPNSNKITATIDLKDIKKIEKLSAG [r5_598_JUSTAS],-0.144 ± 0.52 kcal/mol
15,SAGGSAGGSAGLDPDDPNYKIIPMTMEIKVEEYRMDPDGKMERQEQEHPIPILIIVPPGDSAGGSAGGSAGG [r17_523_TrROS],0.933 ± 0.074 kcal/mol
16,SAGGKTVIIEGMSLEELLELIKNAKPGDTITITLKVKVEEYKYENGKLVEKKEFEKTLTLTLKIEEKESAGG [r13_632_TrROS_Hall],2.57 ± 0.28 kcal/mol

row,Sequence,folding stability dG unfold
1,SAGGSAGGSAGEPVEIEIKIKVEVNGKTYEITAKLEVYKNEDGSYEVKLYAPPEAITEVESAGGSAGGSAGG [r11_816_TrROS_Hall],2.47 ± 0.21 kcal/mol
2,SAGGSALKDFPLEEVEKVILVDLPDGKPALLVLLKGPPVVVLYPLESGKPIFIDAPLEEVLEFLLSSAGGSA [r15_810_TrMRF],2.68 ± 0.05 kcal/mol
3,SAKVKISIEFDKKTNKVTIKVKYKGDKEKEKEITLSLEELQKKLGKPLSLEEIIKLLKEKGIDEVEIYPSAG [r14_809_TrROS_Hall],3.44 ± 0.14 kcal/mol
4,SAGGKVKILKTEVFEEGDYLKIVDFVEVDSLEEIEELVKNGLENVEAEVRLLPDGRLLVVLVAEIPKESAGG [r13_506_TrMRF],1.26 ± 0.031 kcal/mol
5,SAGGSMEVKVVSYDEEKGVLVIEVDEDETVEELVERLRSIPGLKVEVEVVEKDGKLYVVIRVEKKESAGGSA [r2_44_TrROS_Hall],3.17 ± 0.13 kcal/mol
6,SRKFLNDPNIDKVEPTIVIPMSPEERKELAQNLANGIYNYLREHGWPLPPNIEIKIIPFPSPEQMKKMMKSA [r9_204_TrROS],0.6 ± 0.15 kcal/mol
7,MTLEELKAAEGKRLEDVVTVEIVRVERDPETGEEKVVEKRTITFPPGMTLEELKALLESLPAEVRITRVRRS [r1_132_TrROS_Hall],1.85 ± 0.041 kcal/mol
8,SAGGGAMHTVTITDEAGNVTTFTLPTDLDTLKEKIKELFPEKKYEIKKVTRVPGNPGLTTITVKVPKDSAGG [r13_832_JUSTAS],1.28 ± 0.039 kcal/mol
9,SAGGGPDLPGEVEVEVEITRVEFDPETGELRVEAEATFPDGLVAKVKITFPEPGDLDKFEVEVEVEPASAGG [r13_894_TrMRF],1.5 ± 0.052 kcal/mol
10,SVTRDPDGKITVDVDVRRTPDGFYYVEVKLQLKDGKPIFPVPAPVKNPEDGVKRMKEFAETFAKEFLKKWSA [r9_739_TrROS],1.35 ± 0.058 kcal/mol
11,SAGGSAMLLIKITIETKDGEKYEIVVEAESEEEALAALKEKARELFPELSEEDVKIVDIEVYELEESAGGSA [r15_220_TrROS_Hall],4.58 ± 0.25 kcal/mol
12,SAGGSAGGSSELKVVELTTEPGKYLVVTLPDGTVVVLPPGAPLPLGDGEPATVEVVPEEELRSSAGGSAGGS [r12_39_JUSTAS],0.413 ± 0.041 kcal/mol
13,SAGGPDLVPVARAVYRIDVPPDRTAEEVRREIEERLRPLGVRRVVVPVFYDPERGYLLVVAEVYRSPEESAG [r5_924_TrMRF],1.82 ± 0.036 kcal/mol
14,SAGGSAPEVKIVDVEEVDGEVKIKVEAPPGARLLIFNRATGKWEEVEVKPGDTITLPPGALVLVEPSAGGSA [r15_418_TrROS_Hall],1.77 ± 0.025 kcal/mol
15,SAGGSAGGNITPEAKKLVEELADQISEEFPNNGMDIEVEDITWQPDGNVVIRIRFNGWTIWIPVSAGGSAGG [r6_495_TrROS],1.44 ± 0.083 kcal/mol

# Assay: folding stability dG unfold from chymotrypsin proteolysis; higher = more stable
# Outline: as §1
row,Sequence,folding stability dG unfold
1,PWVMIPIRVDDPNMTIREIANEVRKALPPGNKNLKISIMWGDGRRYEIDPGETLKDHFPPGDEFHIMVRLPS [r1_56_TrROS],1.3 ± 0.086 kcal/mol
2,SAGGSAGGSMKTTLLAEKELPDGTRVELTRVESPGSLTYEVVTVSPEGTEVRTLPPDELPYLLSAGGSAGGS [r12_315_JUSTAS],0.399 ± 0.23 kcal/mol
3,PKPLIEIERLPEGVLRARAINPVTGAPITITVPVEPGVDGYRLLAEVEAENVPPELAVKTAETVLALLEKKS [r1_403_TrMRF],-0.183 ± 0.33 kcal/mol
4,SAGGSAGGSAGRLLLEGLGADEVLRLEPEPDRVPIVVRHRDGGRDVVIEMDFEEAVRAILSAGGSAGGSAGG [r11_630_TrMRF],-0.538 ± 0.28 kcal/mol
5,SAGGSAGGSPNYRTVTVTLPNGEVYVIDVSQLIESDPNYVPGDPISDEELVALAKKRAEELELSSAGGSAGG [r6_65_JUSTAS],3.249 ± 0.031 kcal/mol
6,SAGGSAGGSAGGLPPGDKLKPVASWPIWAMFPVTYKGPDGELPFNIMIPIRIEIWKPDDSAGGSAGGSAGGS [r10_758_TrROS],2.674 ± 0.022 kcal/mol
7,SAGGKIIEAIKELLKEGKKLSKEEILKKLKEALRKKAEEEGKPIEEIEITSIHFDKETNEVHIEIKPSAGGS [r16_365_TrROS_Hall],2.63 ± 0.1 kcal/mol
8,SAGGSAKSLTLTVEITLPDGSTVRIEAEIEEKDGYLVIKVTIYNEDGEKVAEFTLVLKLPPPPPEPSAGGSA [r15_263_TrROS_Hall],4.42 ± 0.2 kcal/mol
9,SAGGSAGGSAGKKYLIKIEVEKNGKKYTITMSLEELKKLISSPNVKIVKIEIVEVSEEDLSAGGSAGGSAGG [r17_204_TrROS_Hall],5 ± 0.07 kcal/mol
10,SAGGSAGGSAGMELTLDEIRALLPAEEIEEVEVVEVDGKLVIRVKRKDGKEVRELVIEKDSAGGSAGGSAGG [r17_374_TrROS_Hall],1.67 ± 0.054 kcal/mol
11,SAGGSAGGSAEKKKVTIRIVVKPEDVEEILKAIEELLPPGAKATIKVFDKNGELIAEFEFEVSAGGSAGGSA [r18_188_TrROS_Hall],3.09 ± 0.25 kcal/mol
12,SAGEIEEILIENPETNEVYRITKVETTVELDEDGNLHTTTKVEIEKVEPPPPPEPEVEVEVKPGEKVELSAG [r5_212_TrROS_Hall],-0.00362 ± 0.42 kcal/mol
13,SAGMVITETEELPDRTITTVKYSDGKVVIETLEYDPNSNVVTKTVTTIDLSNPSVSKTTTTVEPDPAPSAGG [r19_102_JUSTAS],1.81 ± 0.063 kcal/mol
14,SAGVEIKTDPSKPVITITINYTSIEEAKEYIEKLVKEIGAKEVKIKEDPNSNKITATIDLKDIKKIEKLSAG [r5_598_JUSTAS],1.46 ± 0.19 kcal/mol
15,SAGGSAGGSAGLDPDDPNYKIIPMTMEIKVEEYRMDPDGKMERQEQEHPIPILIIVPPGDSAGGSAGGSAGG [r17_523_TrROS],-0.37 ± 0.28 kcal/mol
